According to paper PMC12462935, “TRIM21‐Mediated K11‐Linked Ubiquitination of ID1 Suppresses Tumorigenesis and Promotes Cuproptosis in Esophageal Squamous Cell Carcinoma” (Advanced Science, 2025):

Molecular target: T1, TRIM21-His protein (UniProt P19474 1-475)
T1 construct: TRIM21-His protein, Sino Biological 18010-H07B; also called recombinant TRIM21; source: bought: Sino Biological (18010-H07B)
Test: pull-down; TRIM21-His incubated with GST-ID1 or GST at a 3:1 molar ratio in lysis buffer; captured with anti-GST antibody at 4 °C overnight, then Protein A/G beads 4 h; immunoblot
Details: both partners purified

binding result: binds
B1: GST-ID1 (natural protein, UniProt P41134 1-155, looked up)
chain: MKVASGSTATAAAGPSCALKAGKTASGAGEVVRCLSEQSVAISRCAGGAGARLPALLDEQQVNVLLYDMNGCYSRLKELVPTLPQNRKVSKVEILQHVIDYIRDLQLELNSESEVGTPGGRGLPVRAPLSTLNGEISALTAEAACVPADDRILCR
notes: also called recombinant ID1; source: cloned into pGEX-6p-2 with a GST tag and purified
